Legend:
[1] = test system: S. cerevisiae VSK-128 ACS2 deletion strain; test: AADH in vivo growth assay, ACS2 deletion strain on glucose-based agar plates; type: cell-based
Excerpt: All copies of the ACS2 gene were deleted from the industrial S. cerevisiae VSK-128 strain in order to generate a strain with a defective PDH-bypass that was incapable of growth on glucose-based medium. Expression vectors carrying the 25 different AADH variants were then transformed into this ACS2 deletion strain to evaluate their ability to recover the growth of this strain on glucose.
There was a good correlation between the in vitro AADH enzyme activity assays and the in vivo growth recovery analyses.

[2] = test system: AADH; test: AADH in vitro enzyme activity assay from yeast cell lysates; type: biochemical; conditions: for AADH activity: in vitro, expressed in yeast
Description: AADH activity was measured as described by Kozak et al. (2014, Metab. Eng. 21:46-59) by monitoring the reduction of NAD^+ at 340 nm at 30° C. The yeast cells for the cell lysates were collected, washed with water, and then resuspended into lysis buffer containing 100 mM Tris-HCl buffer (pH 7.5) and 1×EDTA free protease inhibitor cocktail (Roche). The cells were lysed with glass beads in a Precellys 24 homogenizer at 5500 rpm for 3×40 seconds and kept on ice between rounds. Lysates were centrifuged at 16 000 g for 20 min at 4° C. and supernatants were collected. The total protein concentration was determined using the Bradford method.
The enzyme assay reaction mixture contained 0.1 mM Coenzyme A, 50 mM CHES buffer (pH 9.5), 0.8 mM NAD^+, 0.2 mM DTT and 10 μL of cell extract in a total reaction volume of 200 μL. The reaction was started by adding 10 mM of freshly prepared acetaldehyde solution and reduction of NAD^+ was followed with a Thermo Konelab 20XT analyser.
Five AADH genes were originally chosen (i.e. ADHEpm, ADHEec, EUTec, EUTdz and LIN1129li) and transformed into the CEN.PK lab strain. These AADHs were expressed from a multicopy plasmid where they were under control of the TEF1 promoter.
Twenty additional novel AADH genes were chosen from the genome mining analyses to be evaluated for expression and enzyme activity in yeast.

Row | Molecule | recovery of the growth deficiency of the ACS2-deletion strain [1] | AADH activity in yeast compared to the adhE-type AADHs ([2]; CEN.PK lab strain, multicopy plasmid, TEF1 promoter) | AADH activity [2]
1 | AADHbs: eutE type AADH of Blautia sp. CAG: 237, GenBank CDB76812.1 (protein, AADHbs) MDEIMIKNIVREVLMKTNLDISCKSDQGVFEDVNDAIDAAYIAQRDWYMNYKVEDRRRIIEAIRVVARENAPMFAKMIHEETGMGRYEDKITKNLAVIDKTPGVECLVTDAISGDSGLMIEEQAPFGVIGAITPSTNPTETIINNTISMIGGGNAVVFNVHPGAKKVCAVCLQILHKTIVENGGPANLITMQRKPDMEAVNKLTASPKIRLMVGTGGMGMVNALLKSGKKTIGAGAGNPPVVVDDTADLDKAASEIYRGASFDNNLLCLAEKETFVMDNVADELIRKMCACGAHLITPQETEQLLKVIFLEKDGKYSVNKKWVGKDASLILESIGIKDADTRLVLCEVPHDHPFVLVEQLMPIMPIVRCKTFEDCVKYAVVAENGNRHTASMFSKNVDHMTRFAKEIETTIFTKNAATLVGVGIGGEGHTTMTIAGPTGEGLTCARSFTRRRRCMLADGGLRVI | capable of recovering the growth deficiency | – | –
2 | AADHta: eutE type AADH of Tolumonas auensis DSM 9187, GenBank ACQ93307.1 (protein, AADHta) MNNTELESLIRTILTEQLTPSATDTPACTASSVALFDDVDSAICAAHAAFLRYQEAPLKTRSAIIAAIRAEIAPCLSELAERAAAETGMGNTADKILKNKAALENTPGIEDLKTTALTGDEGMVLFEYSPFGVVGAVAPSTNPTETIINNSISMLAAGNAIYFSPHPGAKNISLWLIQKMEEIAFKVCGIHNLIVTVKEPTFEATQQMMAHDKIALLAITGGPGIVNMGLKSGKKVIGAGAGNPPCLVDETAEIVKAAQDIVAGASFDYNLPCIAEKSVIAVDCIADQLIQQMREFGAMQITDPQQIAQLREVCIQKGAANKSLVGKSPATILAAAGIPCPAKEPRLIILEVPANDPFVVTEQLMPVLPIVRVDNFEQGLQLALKVEDGLHHTAMMHSQNVSRLNKAAHLMQTSIFVKNGPSYAGIGVGAEGFTTFTIATPTGEGTTSARTFGRLRRCVLTNGFSIR | capable of recovering the growth deficiency | – | –
3 | AADHhs: eutE type AADH of Halanaerobium saccharolyticum DSM 6643, GenBank CCU77919.1 (protein, AADHhs) MKIKENELDKIVNQVISSLNNKQNSNDFNTKINYGIFSTMDEAIAEAVKAQACLQLNYSTEAREKIIKSIRKNVSKHVEKISEMAVEETDMGRIEDKIIKNNLAINKTPGTEDLRTEAFSGKKGLTIVEEAPFGVICSIAPVTNPTETIISNAISMIASCNGVVFNSHPGAKKVSKYIIEVLNKVIMEAGGPENLLTAVNEPTLQTVESCMRDDRIAMIVATGGPGVVNAALSSGKKAIGAGAGNPPVLVDDTVDLKRVAKDIINGASFDNNLPCTSEKAIVALESIADSLLNEMTNQNAQLVHDIKALERVILNDDGSINKALVGKDAAFILNKAGLKAKSEDLRLVIVDVDLRHPFVQKEQLMPVIPLVRAKNFNEAMEMGVDIEEGNRHTAIIHSKNVDNLTKFAKKIETTIYVKNAPSYAGIGAGGEGYATFTIAGPTGEGLTSARSFTRKRRCVLVDGFSII | capable of recovering the growth deficiency | – | –
4 | EUTEec: eutE type AADH of Escherichia coli HS, GenBank YP_001459232.1 (protein, EUTEec) MNQQDIEQVVKAVLLKMQSSDTPPAAVHEMGVFASLDDAVAAAKVAQQGLKSVAMRQLAIAAIREAGEKHARDLAELAVSETGMGRVEDKFAKNVAQARGTPGVECLSPQVLTGDNGLTLIENAPWGVVASVTPSTNPAATLINNAISLIAAGNSVIFAPHPAAKKVSQRAITLLNQAIVAAGGPENLLVTVANPDIETAQRLFKFPGIGLLVVTGGEAVVEAARKHTNKRLIAAGAGNPPVVVDETADLARAAQSIVKGASFDNNIICADEKVLIVVDSVADELMRLMEGQHAVKLTAEQAQQLQPVLLKNIDERGKGTVSRDWVGRDAAKIAAAIGLNVPQETRLLFVETTAEHPFAVTELMMPVLPVVRVANVADAIALAVKLEGGCHHTAAMHSRNIENMNQMANAIDTSIFVKNGPCIAGLGLGGEGWTTMTITTPTGEGVTSARTFVRLRRCVLVDAFRIV | capable of recovering the growth deficiency | much higher AADH activity | showed AADH activity
5 | AADHbw: eutE type AADH of Bilophila wadsworthia 3_1_6, GenBank EFV45545.1 (protein, AADHbw) MDVRQQDVERIVVEVLKKMMSDQPTAAATTVVAASGCDCGDFGLFDRLEDAVQAAEAAQKKISTVAMRDKIIAAIRKAGLENAKAFAEIAHNETGMGRVSDKIAKNILVCERTPGTECLSPMAISGDMGLTLIENAPWGVIASVTPSTNPTATVINNAISMIAGGNSVIFAPHPNAKRASQTAIQVLNKAIIEATGVANLLVAVKEPTIEVAQELFSHPRIKLLVVTGGEAVVAQARKVATMRLIAAGAGNPPVVVDETANIARAARSIYDGASFDNNIICADEKEIIAVDSIADQLKAEMKAIGAVEISLEQADAVARVVLRNYPQVEGGKAPNPNPKWVGRDAALIAKAAGIDVPDSCRLLIVDVKRDINHVFARVEQLMPVIPLLRAANVDEAIEWALILERGLSHTAGMHSRNIDNMDKMARAMNTSLFVKNGPHLAALGAGGEGWTTMTISTPTGEGVTCARSFVRLRRCCVVDNFRIV | capable of recovering the growth deficiency | – | shown to have AADH activity
6 | AADHmm: eutE type AADH of Morganella morganii SC01, GenBank EMP53767.1 (protein, AADHmm) MDQKEIENVVKAVLASMSAGTQPAAASAAPQQAAASQNNGFGVFESLDDAVLAAKEAQKSLKTVEMRNLCIGAIRRAATEHARELAVLAVEETGMGRVEDKLAKNLAQANGTPGVECLRPEVLTGDHGLTLIENAAWGVIASVTPSTNPAATAINNAISMIAGGNSVIFAPHPAAKKVSQRTITILNEAIVAAGGPNNLLVTVAKPDIETAQRLFKYPGIGLLVVTGGDAVVESARKHTNKRLIAAGAGNPPVVVDETADIERAAKAIVHGASFDNNIICADEKVLIAVDCIADKLITEMQRNHAVLLTREQSEKLIPVLLKNVDETGHGTVSRDWVGRDAAKIAAAIGMTVPADTRLLIAETDCKHPFAVTELMMPVLPIIRVKDVDQAIDLAVKLEGGCHHTAAMHSNNISNLNRMANAIDTSIFVKNGPCIAGLGLGGEGWTTMTITTPTGEGVTCARTFVRLRRCTMVDSFRIV | capable of recovering the growth deficiency | – | shown to have AADH activity
7 | ADHEpm: adhE type AADH of Piromyces sp. E2, GenBank AY282576.1 (protein, ADHEpm) MSGLQMFQNLSLYGSLAEIDTSEKLNEAMDKLTAAQEQFREYNQEQVDKIFKAVALAASQNRVAFAKYAHEETQKGVFEDKVIKNEFAADYIYHKYCNDKTAGIIEYDEANGLMEIAEPVGPVVGIAPVTNPTSTIIYKSLIALKTRNCIIFSPHPGAHKASVFVVKVLHQAAVKAGAPENCIQIIFPKMDLTTELLHHQKTRFIWATGGPGLVHASYTSGKPALGGGPGNAPALIDETCDMNEAVGSIVVSKTFDCGMICATENAVVVVESVYENFVATMKKRGAYFMTPEETKKASNLLFGEGMRLNAKAVGQTAKTLAEMAGFEVPENTVVLCGEASEVKFEEPMAHEKLTTILGIYKAKDFDDGVRLCKELVTFGGKGHTAVLYTNQNNKDRIEKYQNEVPAFHILVDMPSSLGCIGDMYNFRLAPALTITCGTMGGGSSSDNIGPKHLLNIKRVGMRRENMLWFKIPKSVYFKRAILSEALSDLRDTHKRAIIITDRTMTMLGQTDKIIKACEGHGMVCTVYDKVVPDPTIKCIMEGVNEMNVFKPDLAIALGGGSAMDAAKMMRLFYEYPDQDLQDIATRFVDIRKRVVGCPKLGRLIKTLVCIPTTSGTGAEVTPFAVVTSEEGRKYPLVDYELTPDMAIVDPEFAVGMPKRLTSWTGIDALTHAIESYVSIMATDFTRPYSLRAVGLIFESLSLAYNNGKDIEAREKMHNASAIAGMAFANAFLGCCHSVAHQLGSVYHIPHGLANALMLSHIIKYNATDSPVKMGTFPQYKYPQAMRHYAEIAELLLPPTQVVKMTDVDKVQYLIDRVEQLKADVGIPKSIKETGMVTEEDFFNKVDQVAIMAFDDQCTGANPRYPLVSELKQLMIDAWNGVVPKL | – | – | showed AADH activity
8 | AADHtl: eutE type AADH of Thauera linaloolentis DSM 12138, GenBank ENO90114.1 (protein, AADHtl) MVDIDLKNVEQIVRTVLASMQTQPQAVQPAAGRRAAPGVFTELDDAVAEASTAQRAIRNLATRVKVVEAIRKAAEAHARELAELAVAETGMGRVEDKFAKNVSQARHTPGVECLAPTALTGDRGLTLIENAAWGVIASVTPSTNPAATIINNAISMISAGNTVVFAPHPAAKKVSQRTVSLLNEASVAAGGPDNVVTTVLNPDIATAQRLFSYPGIHLLTVTGGEAVVEAARKHTDKRLIAAGAGNPPVVVDETADLARAARDIVWGASFDNNIICVDEKEIIVVDRVCDALKTEMARHKAVELTPDQGKRLVDVLLNYVGADGRGTVSRDWVGRDAAKIAAAIGLEVPADTRLLYIETPADHPFAVTELMMPVIPVVRAPDVDAAIDLAVKLEGNCRHTAAMHSRNIDALDRMANAINTSIFVKNGPCLAGLGFGGEGWTTMTISTPTGEGVTSARTFVRLRRCVLVDHFRIV | capable of recovering the growth deficiency | – | –

Source: US10704064B2, “Recombinant yeast producing 3-hydroxypropionic acid and method for producing 3-hydroxypropionic acid using the same” (SK Innovation Co., Ltd., priority 2014, dated 2020)
